Measured values as given in patent publication US20120114652A1 (AbbVie / Abbott, published 2012).

Legend:
[1] = biological target: human PAI-1, active, wild-type, non-glycosylated (E. coli-derived) (human, UniProt P05121 24-402); test: cell-based or functional assay
cynomolgus PAI-1 = cynomolgus PAI-1 (cynomolgus, UniProt P05121 24-402 (human entry), limits assumed); test: cell-based or functional assay
rat PAI-1 = biological target: T1, rat PAI-1 (rat, UniProt P20961 24-402); test: cell-based or functional assay
T1 sequence: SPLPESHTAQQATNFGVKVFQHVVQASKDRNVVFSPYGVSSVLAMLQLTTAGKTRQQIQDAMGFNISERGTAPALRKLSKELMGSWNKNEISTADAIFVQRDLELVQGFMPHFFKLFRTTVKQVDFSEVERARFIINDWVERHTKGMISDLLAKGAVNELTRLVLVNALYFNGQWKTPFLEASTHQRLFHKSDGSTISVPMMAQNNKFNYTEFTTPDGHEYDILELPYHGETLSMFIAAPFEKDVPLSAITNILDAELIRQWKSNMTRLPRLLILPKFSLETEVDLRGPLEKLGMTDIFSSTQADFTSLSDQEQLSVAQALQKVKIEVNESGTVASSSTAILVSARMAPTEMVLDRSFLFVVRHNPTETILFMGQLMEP

mouse PAI-1 = biological target: T2, mouse PAI-1 (mouse, UniProt P22777 24-401); test: IgG competition ELISA (DELFIA) against biotinylated human PAI-1, one-site binding analysis; column Mouse
T2 construct: bought (US Biological); also called murine PAI-1
T2 sequence: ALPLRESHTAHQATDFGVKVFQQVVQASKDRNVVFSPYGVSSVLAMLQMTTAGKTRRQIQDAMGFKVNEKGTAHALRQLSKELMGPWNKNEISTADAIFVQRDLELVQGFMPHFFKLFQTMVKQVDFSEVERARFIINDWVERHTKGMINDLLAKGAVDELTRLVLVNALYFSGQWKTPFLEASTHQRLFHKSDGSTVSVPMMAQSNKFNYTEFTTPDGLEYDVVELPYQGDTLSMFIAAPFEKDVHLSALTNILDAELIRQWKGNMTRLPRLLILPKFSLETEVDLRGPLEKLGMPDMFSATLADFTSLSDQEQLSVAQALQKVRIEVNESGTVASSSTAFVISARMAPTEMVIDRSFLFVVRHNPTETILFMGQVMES

rabbit PAI-1 = biological target: T3, rabbit PAI-1 (rabbit); test: IgG competition ELISA (DELFIA) against biotinylated human PAI-1, one-site binding analysis; column Rabbit
T3 chain: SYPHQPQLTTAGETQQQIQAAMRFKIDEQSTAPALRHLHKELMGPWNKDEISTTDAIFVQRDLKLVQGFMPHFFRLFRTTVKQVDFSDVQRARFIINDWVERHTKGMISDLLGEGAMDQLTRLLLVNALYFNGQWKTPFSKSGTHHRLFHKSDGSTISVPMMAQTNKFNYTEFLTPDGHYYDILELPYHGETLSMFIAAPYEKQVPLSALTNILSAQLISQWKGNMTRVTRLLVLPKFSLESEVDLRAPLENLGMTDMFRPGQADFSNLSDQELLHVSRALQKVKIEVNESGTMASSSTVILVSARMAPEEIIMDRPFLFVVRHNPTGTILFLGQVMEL

latent human PAI-1 = biological target: T4, latent human PAI-1 (human, UniProt P05121 24-402); test: IgG competition ELISA (DELFIA) against biotinylated human PAI-1, one-site binding analysis; column Human latent
T4 construct: also called latent PAI-1

IC50, PAI-1:tPA functional assay [1]: 1.34 nM | IC50, PAI-1:tPA functional assay (cynomolgus PAI-1): 0.8 nM | IC50, PAI-1:tPA functional assay (rat PAI-1): 1.97 nM | fold difference in observed binding KD compared to human wild-type active (mouse PAI-1): 47 fold | fold difference in observed binding KD compared to human wild-type active (rabbit PAI-1): 41.5 fold | fold difference in observed binding KD compared to human wild-type active (latent human PAI-1): 8.5 fold
B1: PICK167_A01 IgG1 (antibody, V domains shown)
VH: QVQLQQSGAEVKKPGSSVKVSCKASGGTFSSYAISWVRQAPGQRLEWMGGIIPTFGTANYAQKFQGRVTITADESTSTAYMELSGLRSEDTAVYYCARERRQWLEGHFDYWGRGTPVTVSS
VL: DIQMTQSPSFLSASIGDRVTITCRASEGIYHNLAWYQQKPGKAPKLLIYKASSLASGAPSRFSGSRSGTDFTLTISSLQPDDFATYYCQQYSNYPLTFGGGTKLEIKR
